Experimental data as given in patent publication US20050090447A1, “Peptides that promote complement activation” (Baxter International Inc., priority 2003, published 2005).
Bridge positions count the residues as written; N and C are the ends. Ends that are not written are not given here.

Assays:
[1] = test system: E. coli strain 07:K1:NM (ATCC 23503); test: Bactericidal assay, complement-mediated killing in pooled human plasma, colony count; assay type: cell-based; settings: 100 uM peptide, one hour 37° C.; plasma alone 71%
Procedure: FIG. 4 is a bar graph depicting bacteriocidal activity of peptides against E. coli O7:K1:NM. Controls were run with plasma alone, complement inactivated (heat inactivated) plasma, and PBS/0.5% BSA.
The ability of Peptides 1- 3 to enhance complement-mediated killing of bacteria was examined. A virulent strain of E. coli that was chosen for the assays. E. coli strain 07:K1:NM (ATCC 23503), a strain less susceptible to complement mediated killing than most strains of E. coli, were grown in LB media to an optical density (OD) at 600 nm between 0.3 to 0.4 at 37° C. The cells were washed and resuspended in PBS containing 0.5% BSA and the concentration of cells determined from the OD at 600 nm. The cells were diluted in PBS/0.5% BSA to a concentration of 2×10^5 cfu/mL and 100 ul of cells were added to 100 ul of pooled human plasma containing 100 uM of peptide. The sample was incubated for one hour at 37° C. 10 ul aliquots were removed before and after the incubation and bacterial survival was examined by the colony count method (counting cells on LB agar before and after incubation). Heat inactivated plasma (56° C., 30 min.), plasma with no peptide, and PBS/0.5% BSA were also incubated with the cells as controls.

C5 = target: T1, C5 (Homo sapiens, UniProt P01031); test: Phage clone binding to biotinylated C5 (neutravidin capture, anti-M13 antibody detection); settings: phage clones, FIG. 1
T1 construct: purchased Advanced Research Technologies
Procedure: FIG. 1 is a bar graph depicting the binding of peptide #1, peptide #2, and peptide #3 to C5. […] Wild-type M13 phage without a peptide fused to the pill protein was used as a negative control for this assay.
To confirm that Peptides 1, 2, and 3 (Sequence I. D. Nos:1, 2, and 3, respectively) bind C5, the phage clones were tested in a binding assay with increasing amounts of phage incubated with constant biotinylated C5, captured on a neutravidin plate and detected with an anti-phage antibody. Increasing concentrations of each phage clone were incubated for 2 hours with 200 ng of biotinylated C5 in PBS containing 0.5% BSA. The phage bound C5 complex was captured on a neutravidin coated microplate for 20 minutes at room temperature and then washed well. A peroxidase labeled anti-M13 antibody (Pharmacia) was used to detect the amount of phage bound to C5 with OPD substrate.

classical pathway = test: Classical pathway hemolytic assay, antibody sensitized sheep erythrocytes in pooled human plasma; assay type: cell-based; settings: disulfide bond reduced and cysteines alkylated; data not shown
Procedure: FIGS. 2A and 2B are bar graphs depicting percent hemolysis above control versus peptide concentration with peptides 1, 2, and 3 for classical pathway activation (FIG. 2A), and alternative pathway activation (FIG. 2B). Percent hemolysis above control is the percent lysis of erythrocytes for each peptide concentration minus the lysis of erythrocytes in the absence of peptide.
Activation of the classical and alternative pathway by the peptides was measured using standard hemolysis assays. For the classical pathway various concentrations of peptide were incubated with 50 ul pooled human plasma (diluted 1:30 with GVB++), 5×10^7 antibody sensitized sheep erythrocyte cells, and GVB++buffer to a final volume of 200 ul. The reaction was incubated at 37° C. for one hour and centrifuged. The percentage of lysis was determined by measuring the optical density of the supernatant at 414 nm. […] Lysis of the erythrocytes was not observed when the peptides were incubated in the absences of a source of complement (plasma). The peptides altered the activity of the complement protein(s) and increased the level of activation of the complement cascade resulting in an increase in hemolysis. Furthermore, when the disulfide bond of peptide 2 was reduced and the cysteines alkylated, enhancement of erythrocyte lysis was reduced (data not shown).

T1 sequence (P01031 19-1676): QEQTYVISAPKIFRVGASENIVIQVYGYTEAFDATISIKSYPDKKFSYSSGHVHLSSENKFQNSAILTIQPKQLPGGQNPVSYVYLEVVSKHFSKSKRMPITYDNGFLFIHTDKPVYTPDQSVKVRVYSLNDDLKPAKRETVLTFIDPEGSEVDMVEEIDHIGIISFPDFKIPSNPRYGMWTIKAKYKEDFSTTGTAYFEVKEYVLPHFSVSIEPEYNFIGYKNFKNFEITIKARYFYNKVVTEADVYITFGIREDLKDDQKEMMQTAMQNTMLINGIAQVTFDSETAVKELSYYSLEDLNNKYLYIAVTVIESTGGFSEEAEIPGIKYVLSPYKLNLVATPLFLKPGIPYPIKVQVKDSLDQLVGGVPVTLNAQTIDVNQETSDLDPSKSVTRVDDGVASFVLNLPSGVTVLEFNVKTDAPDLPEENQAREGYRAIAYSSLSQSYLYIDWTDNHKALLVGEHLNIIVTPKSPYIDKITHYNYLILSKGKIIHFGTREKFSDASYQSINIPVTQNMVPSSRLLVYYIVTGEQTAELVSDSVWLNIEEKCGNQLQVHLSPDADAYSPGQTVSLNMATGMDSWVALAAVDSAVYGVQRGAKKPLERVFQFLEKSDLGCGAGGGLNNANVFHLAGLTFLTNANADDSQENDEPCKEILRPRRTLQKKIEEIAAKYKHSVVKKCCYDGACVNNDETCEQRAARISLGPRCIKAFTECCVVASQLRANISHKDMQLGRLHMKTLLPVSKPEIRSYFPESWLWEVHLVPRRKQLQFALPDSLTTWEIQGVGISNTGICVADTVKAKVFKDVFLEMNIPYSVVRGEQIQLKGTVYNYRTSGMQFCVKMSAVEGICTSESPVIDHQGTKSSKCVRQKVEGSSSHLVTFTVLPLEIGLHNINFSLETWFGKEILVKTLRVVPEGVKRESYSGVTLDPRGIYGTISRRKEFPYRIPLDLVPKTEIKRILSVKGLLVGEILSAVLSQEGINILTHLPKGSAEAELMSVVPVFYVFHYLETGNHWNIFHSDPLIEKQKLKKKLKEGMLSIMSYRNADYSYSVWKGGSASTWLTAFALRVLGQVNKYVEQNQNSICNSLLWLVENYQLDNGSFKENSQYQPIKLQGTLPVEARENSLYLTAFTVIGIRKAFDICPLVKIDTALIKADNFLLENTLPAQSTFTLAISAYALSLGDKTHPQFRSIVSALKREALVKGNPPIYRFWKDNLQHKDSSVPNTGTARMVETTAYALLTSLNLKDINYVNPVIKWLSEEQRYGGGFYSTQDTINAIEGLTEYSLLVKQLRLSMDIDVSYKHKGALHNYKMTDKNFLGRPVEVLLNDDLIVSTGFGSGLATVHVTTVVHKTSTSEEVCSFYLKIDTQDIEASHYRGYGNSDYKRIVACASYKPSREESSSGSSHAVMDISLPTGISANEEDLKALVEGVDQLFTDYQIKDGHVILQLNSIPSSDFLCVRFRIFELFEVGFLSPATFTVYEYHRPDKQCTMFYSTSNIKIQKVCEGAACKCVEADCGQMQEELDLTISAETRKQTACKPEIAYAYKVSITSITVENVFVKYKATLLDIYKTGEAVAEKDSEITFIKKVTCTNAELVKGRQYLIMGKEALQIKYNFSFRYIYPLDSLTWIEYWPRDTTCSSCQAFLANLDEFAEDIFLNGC

| Sequence | bacterial survival [1] | relative affinity for C5 (rank order) (C5) | enhancement of erythrocyte lysis (classical pathway) |
| --- | --- | --- | --- |
| CLSAHHHMC (YCLSAHHHMCGGG; disulfide 2-10 (inferred)) [Peptide 1, synthetic form has added N terminal tyrosine and three C terminal glycines] | 23% | tightest relative affinity |  |
| CPGKASPWC (YCPGKASPWCGGG; disulfide 2-10 (inferred)) [Peptide 3, synthetic form has added N terminal tyrosine and three C terminal glycines] |  | then Peptide 3 |  |
| CPSSPPHMC (YCPSSPPHMCGGG; disulfide 2-10 (inferred)) [Peptide 2, synthetic form has added N terminal tyrosine and three C terminal glycines] |  | followed by Peptide 2 | reduced |
